Results on two molecules are retold here after PMC6761829 (Nature structural & molecular biology, 2019).

B1: Full-length Drosophila melanogaster spastin with a Walker B mutation (E583Q) (enzyme, UniProt Q8I0P1 1-758, looked up)
chain: MVRTKNQSSSSSASSSSTKSPIKSSSGAGSSGGGLGGRQSTHRSSSASNVAAVVAGGSSAAGGGSSSNRRSPGSSPDGDDDTTTTDDLTPTTCSPRSGHHHSYGGYSSSVHKQNLYVVSFPIIFLFNVLRSLIYQLFCIFRYLYGASTKVIYRPHRRDCNIEIVVQNSSKEQQQSLNHPSELNREGDGQEQQLSNQPQRFRPIQPLEMAANRPGGGYSPGPGDPLLAKQKHHHRRAFEYISKALKIDEENEGHKELAIELYRKGIKELEDGIAVDCWSGRGDVWDRAQRLHDKMQTNLSMARDRLHFLALREQDLQMQRLSLKEKQKEEAQSKPQKTREPMLAGMTNEPMKLRVRSSGYGPKATTSAQPTASGRKLTIGSKRPVNLAVANKSQTLPRNLGSKTSVGAVQRQPAKTAATPPAVRRQFSSGRNTPPQRSRTPINNNGPSGSGASTPVVSVKGVEQKLVQLILDEIVEGGAKVEWTDIAGQDVAKQALQEMVILPSVRPELFTGLRAPAKGLLLFGPPGNGKTLLARAVATECSATFLNISAASLTSKYVGDGEKLVRALFAVARHMQPSIIFIDQVDSLLSERSSSEHEASRRLKTEFLVEFDGLPGNPDGDRIVVLAATNRPQELDEAALRRFTKRVYVSLPDEQTRELLLNRLLQKQGSPLDTEALRRLAKITDGYSGSDLTALAKDAALEPIRELNVEQVKCLDISAMRAITEQDFHSSLKRIRRSVAPQSLNSYEKWSQDYGDITI

Where no end group is shown, it is not given here.

For series [1], the target named is B1. The series can be described thus: AUC.
The series “AUC” deals with the molecule itself. In words: AUC.

As for Atto488-VGSEEEEEEEEEE [VGSEEEEEEEEEE peptide labeled with Atto488], the binding result in series [1] is given as “binds”.
Regarding B1, in “AUC”, the “stoichiometry N” value stood at 6.

In general, stoichiometry N refers to a count of units in the complex or per binding partner.
